Test results from US20200308299A1, “ANTI-GPC-1 ANTIBODY” (National University Corporation Kochi University, priority 2017, published 2020).

B1: clone 02a010: anti-human Glypican-1 antibody, heavy chain SEQ ID NO: 174, light chain SEQ ID NO: 176 (antibody)
heavy: MKHLWFFLLLVAAPRWVLSEVKLVESGGGLVKPGGSRKLSCAASGFTFSDYGMHWVRQAPEKGLEWVAYINSGSSTIYYADTVKGRFTISRDNAKNTLFLQMTSLRSGDTAMYYCARHSYYSYDVGGDYVMDYWGQGTSVTVSSAKTTAPSVYPLAPVCGDTTGSSVTLGCLVKGYFPEPVTLTWNSGSLSSGVHTFPAVLQSDLYTLSSSVTVTSSTWPSQSITCNVAHPASSTKVDKKIEPRGPTIKPCPPCKCPAPNLLGGPSVFIFPPKIKDVLMISLSPIVTCVVVDVSEDDPDVQISWFVNNVEVHTAQTQTHREDYNSTLRVVSALPIQHQDWMSGKEFKCKVNNKDLPAPIERTISKPKGSVRAPQVYVLPPPEEEMTKKQVTLTCMVTDFMPEDIYVEWTNNGKTELNYKNTEPVLDSDGSYFMYSKLRVEKKNWVERNSYSCSVVHEGLHNHHTTKSFSRTPGK
light: MRLLAQLLGLLMLWVPGSSGDIVLTQSPKFMSTSVGDRVSITCKASQDVGTAVAWYQQKPGQSPKLLIYWASTRHTGVPDRFTGSGSGTDFTLTISNVQSEDLADYFCQQYSSYPLTFGAGTKLEIKRADAAPTVSIFPPSSEQLTSGGASVVCFLNNFYPKDINVKWKIDGSERQNGVLNSWTDQDSKDSTYSMSSTLTLTKDEYERHNSYTCEATHKTSTSPIVKSFNRNEC
B2: clone 02a002: anti-human Glypican-1 antibody, heavy chain SEQ ID NO: 166, light chain SEQ ID NO: 168 (antibody)
heavy: MKHLWFFLLLVAAPRWVLSEVKLVESGGGLVKPGGSRKLSCAASGFTFSDYGMHWVRQAPEKGLEWVAYISSGSSTIYYADTVKGRFTISRDNAKNTLFLQMTSLRSEDTAMYYCARHSYYSYDVGGDYVMDYWGQGTSVTVSSAKTTAPSVYPLAPVCGDTTGSSVTLGCLVKGYFPEPVTLTWNSGSLSSGVHTFPAVLQSDLYTLSSSVTVTSSTWPSQSITCNVAHPASSTKVDKKIEPRGPTIKPCPPCKCPAPNLLGGPSVFIFPPKIKDVLMISLSPIVTCVVVDVSEDDPDVQISWFVNNVEVHTAQTQTHREDYNSTLRVVSALPIQHQDWMSGKEFKCKVNNKDLPAPIERTISKPKGSVRAPQVYVLPPPEEEMTKKQVTLTCMVTDFMPEDIYVEWTNNGKTELNYKNTEPVLDSDGSYFMYSKLRVEKKNWVERNSYSCSVVHEGLHNHHTTKSFSRTPGK
light: MRLLAQLLGLLMLWVPGSSGDIVMSQSPKFMSTSVGDRVSITCKASQDVGTAVAWYQQKPGQSPKLLIYWASTRHTGVPDRFTGSGSGTDFTLTISNVQSEDLADYFCQQYSSYPLTFGAGTKLEIKRADAAPTVSIFPPSSEQLTSGGASVVCFLNNFYPKDINVKWKIDGSERQNGVLNSWTDQDSKDSTYSMSSTLTLTKDEYERHNSYTCEATHKTSTSPIVKSFNRNEC
B3: clone 18: anti-Glypican-1 antibody, heavy chain SEQ ID NO: 202, light chain SEQ ID NO: 204; sequence from WO 2015/098112 (antibody)
heavy: AVTLDESGGGLQTPGGTLSLVCKASGFDFSSVNMFWVRQAPGKGLEFVAGIDNDATFTLYGSAVKGRASISRDNGQSTVRLQLNNLRAEDTGTYYCAKTLCSTTWGCGAYSAGDIDAWGHGTEVIVSS
light: ASTQPSSVSANPGETVKITCSGGGSSGYGYYGWYQQKSPGSAPVTVIYNNNKRPTDIPSRFSGALSGSTATLTITGVQVEDEAVYYCGSRDNTYVGIFGAGTTLTVL
B4: clone 02a014: anti-human Glypican-1 antibody, heavy chain SEQ ID NO: 178, light chain SEQ ID NO: 180 (antibody)
heavy: MKHLWFFLLLVAAPRWVLSEVQLQQSGPELVKPGASVKISCKASGYSFTGYYIHWVKQSPEKSLEWIGEINPSTGDITYNQKFKAKATLTVDKSSSTAYMQLKSLTSDDSAVYYCARERNYDRFAYWGQGTLVTVSSAKTTAPSVYPLAPVCGDTTGSSVTLGCLVKGYFPEPVTLTWNSGSLSSGVHTFPAVLQSDLYTLSSSVTVTSSTWPSQSITCNVAHPASSTKVDKKIEPRGPTIKPCPPCKCPAPNLLGGPSVFIFPPKIKDVLMISLSPIVTCVVVDVSEDDPDVQISWFVNNVEVHTAQTQTHREDYNSTLRVVSALPIQHQDWMSGKEFKCKVNNKDLPAPIERTISKPKGSVRAPQVYVLPPPEEEMTKKQVTLTCMVTDFMPEDIYVEWTNNGKTELNYKNTEPVLDSDGSYFMYSKLRVEKKNWVERNSYSCSVVHEGLHNHHTTKSFSRTPGK
light: MRLLAQLLGLLMLWVPGSSGSIVMTQTPALMAASPGEKVTITCSVSSSISSSNLHWYQQKSETSPKPWIYGTSNLASGVPVRFSGSGSGTSYSLTISSMEAEDAATYYCQQWSSYPLTFGAGTKLEIKRADAAPTVSIFPPSSEQLTSGGASVVCFLNNFYPKDINVKWKIDGSERQNGVLNSWTDQDSKDSTYSMSSTLTLTKDEYERHNSYTCEATHKTSTSPIVKSFNRNEC
B5: clone 02b006: anti-human Glypican-1 antibody, heavy chain SEQ ID NO: 194, light chain SEQ ID NO: 196 (antibody)
heavy: MKHLWFFLLLVAAPRWVLSEVQLVESGGGLVKPGGSRKLSCAASGFTFSDYGMHWVRQAPEKGLEWVAYISSGSSTIYYADTVKGRFTISRDNAKNTLFLQMTSLRSEDTAIYYCVRHSYYNYDIGGYYAMDYWGQGTSVTVSSAKTTAPSVYPLAPVCGDTTGSSVTLGCLVKGYFPEPVTLTWNSGSLSSGVHTFPAVLQSDLYTLSSSVTVTSSTWPSQSITCNVAHPASSTKVDKKIEPRGPTIKPCPPCKCPAPNLLGGPSVFIFPPKIKDVLMISLSPIVTCVVVDVSEDDPDVQISWFVNNVEVHTAQTQTHREDYNSTLRVVSALPIQHQDWMSGKEFKCKVNNKDLPAPIERTISKPKGSVRAPQVYVLPPPEEEMTKKQVTLTCMVTDFMPEDIYVEWTNNGKTELNYKNTEPVLDSDGSYFMYSKLRVEKKNWVERNSYSCSVVHEGLHNHHTTKSFSRTPGK
light: MRLLAQLLGLLMLWVPGSSGDIVLTQSPSSLSASLGERVSLTCRASQEISGYLSWLQQKPDGTIKRLIYAASTLDSGVPKRFSGSRSGSDYSLTISSLESEDFADYYCLQYASYPLTFGAGTKLEIKRADAAPTVSIFPPSSEQLTSGGASVVCFLNNFYPKDINVKWKIDGSERQNGVLNSWTDQDSKDSTYSMSSTLTLTKDEYERHNSYTCEATHKTSTSPIVKSFNRNEC
B6: clone 01a042: anti-human Glypican-1 antibody, heavy chain SEQ ID NO: 162, light chain SEQ ID NO: 164 (antibody)
heavy: MKHLWFFLLLVAAPRWVLSQVQLQQPGAELAKPGASVKMSCKASGYTFTRYWMHWVKQRPGQGLEWIGYINPSSGYTEYNQKFKDKATLTADKSSSTAYMQLSSLTSEDSAVYYCVRLGDYSYYFDYWGQGTTLTVSSAKTTAPSVYPLAPVCGDTTGSSVTLGCLVKGYFPEPVTLTWNSGSLSSGVHTFPAVLQSDLYTLSSSVTVTSSTWPSQSITCNVAHPASSTKVDKKIEPRGPTIKPCPPCKCPAPNLLGGPSVFIFPPKIKDVLMISLSPIVTCVVVDVSEDDPDVQISWFVNNVEVHTAQTQTHREDYNSTLRVVSALPIQHQDWMSGKEFKCKVNNKDLPAPIERTISKPKGSVRAPQVYVLPPPEEEMTKKQVTLTCMVTDFMPEDIYVEWTNNGKTELNYKNTEPVLDSDGSYFMYSKLRVEKKNWVERNSYSCSVVHEGLHNHHTTKSFSRTPGK
light: MRLLAQLLGLLMLWVPGSSGDVVMTQTPLSLPVSLGDQASISCRSSQSIVHSNGNTYLEWYLQKPGQSPKLLIYKVSNRFSGVPDRFSGSGSGTDFTLKISRVEAEDLGVYYCFQGSHVPWTFGGGTKLELKRADAAPTVSIFPPSSEQLTSGGASVVCFLNNFYPKDINVKWKIDGSERQNGVLNSWTDQDSKDSTYSMSSTLTLTKDEYERHNSYTCEATHKTSTSPIVKSFNRNEC

How the values were obtained:
TE14 cells = assay: ADC assay combining anti-GPC-1 antibody and MMAF binding secondary antibody, TE14 cells; type: cell-based; details: primary antibody plus MMAF secondary antibody
Experimental: FIG. 1 depicts a schematic diagram of an ADC used in an assay. This Example used a secondary antibody (MORADEC) to the anti-GPC1 antibody made in Example 1, to which an anticancer agent (MMAF) was bound via a linker.
2000 TE14 cells were added to a 96-well plate at 80 μl. The cells were cultured overnight at 37° C. in a 5% CO2 incubator. The next day, 10 μl of an anticancer agent bound secondary antibody and 10 μl of a primary antibody concentrated 10-fold relative to the final concentration was added to each well, so that the total amount was 100 μl. The cells were cultured for 6 days at 37° C. in a 5% CO2 incubator. The cell viability was measured by using a CellTiter-Glo Luminescent Cell Viability Assay reagent to detect the amount of ATP. RPMI1640+10% FBS+1% PS was used as the medium. The final concentrations of the primary antibody were 0, 0.004, 0.0156, 0.0625, 0.25, and 1.0 nM. 2 μg/ml of Fab-aMFc-CL-MMAF (model number: AM202AF-50, Moradec) was used as the secondary antibody.

DU145 cells = assay: ADC assay combining anti-GPC-1 antibody and MMAF binding secondary antibody in DU145 cells; type: cell-based; details: 3 days; for EC50 values against DU145 cells: primary antibody plus MMAF secondary antibody
Experimental: 2000 DU145 cells were added to a 96-well plate at 80 μl. The cells were cultured overnight at 37° C. in a 5% CO2 incubator. The next day, 10 μl each of anticancer agent binding secondary antibody (2 μg/ml) and primary antibody concentrated 10-fold relative to the final concentration was added to each well, so that the total amount was 100 μl. The cells were cultured for 3 days at 37° C. in a 5% CO2 incubator. The cell viability was measured by using a CellTiter-Glo Luminescent Cell Viability Assay reagent to detect the amount of ATP. RPMI1640+10% FBS+1% PS was used as the medium. The final concentrations of the primary antibodies were […]. 2 μg/ml of Fab-aMFc-CL-MMAF (model number AM202AF-50, Moradec) was used as the secondary antibody. The EC50 value was analyzed with GraphPad Prism 6. The same experiment was conducted using 4000 MDA-MB231 cells as the control.

Molecule	EC50 values against TE14 cells (TE14 cells)	growth suppressing effect against DU145 cells (DU145 cells; primary antibody plus MMAF secondary antibody 2 μg/ml)	EC50 values against DU145 cells (DU145 cells)
B1	excellent EC50 values	high growth suppressing effect	excellent EC50 values
B2	excellent EC50 values		excellent EC50 values
B3	excellent EC50 values		excellent EC50 values
B4	excellent EC50 values		excellent EC50 values
B5	excellent EC50 values		excellent EC50 values
B6	excellent EC50 values		excellent EC50 values
